Assay results taken from patent US20240092898A1 (BIVICTRIX, published 2024).

What was measured:
[1] = target: T1, CD7 (human, UniProt P09564 26-180, limits assumed); test: SPR; ratio of KD to WT
T1 construct: also called human CD7
T1 sequence (looked up): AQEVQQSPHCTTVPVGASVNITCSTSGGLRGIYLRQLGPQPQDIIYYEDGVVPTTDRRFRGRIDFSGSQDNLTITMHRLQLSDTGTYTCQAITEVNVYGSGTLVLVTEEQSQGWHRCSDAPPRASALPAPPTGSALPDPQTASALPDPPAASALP

[2] = target: T1, CD7; test: SPR

B1: 7-AA-1 (antibody, V domains shown)
VH: QVQLQESGAELVKPGASVKLSCKASGYTFTSYWMHWVKQRPGQGLEWIGKINPSNGRTNYNEKFKSKATLTVDKSSSTAYMQLSSLTSEDSAVYYCARGGVYYDLYYAALDYWGQGTTVTVSS
VL: DIELTQSPATLSVTPGDSVSLSCRASQSISNNLHWYQQKSHESPRLLIKSASQSISGIPSRFSGSGSGTDFTLSINSVETEDFGMYFCQQSNSWPYTFGGGTKLEIKR
Fold reduction in binding affinity compared to WT (Kd) [1]: 17 fold | Kd [2]: 44.5 nM
